# Data as given in publication PMC9463662, “Selection of DNA aptamer and its application as an electrical biosensor for Zika virus detection in human serum”.
# Legend:
# [1] = molecular target: T1, Zika virus envelope protein (Zika virus, UniProt A0A221S5X1 1-403); test: bead-based fluorescence binding assay; protein on streptavidin beads; conditions: protein: commercial
# [2] = molecular target: albumin (bovine serum albumin in sensor test) (UniProt P02769 25-607); test: capacitance biosensor; bovine serum albumin
# [3] = molecular target: T1, Zika virus envelope protein; test: capacitance biosensor; aptamer/MXene on Au micro-gap electrode; DIW or 10% human serum; LOD 38.14 pM in serum; conditions: protein: commercial
# albumin (bovine serum albumin in sensor test), sequence (P02769 25-607): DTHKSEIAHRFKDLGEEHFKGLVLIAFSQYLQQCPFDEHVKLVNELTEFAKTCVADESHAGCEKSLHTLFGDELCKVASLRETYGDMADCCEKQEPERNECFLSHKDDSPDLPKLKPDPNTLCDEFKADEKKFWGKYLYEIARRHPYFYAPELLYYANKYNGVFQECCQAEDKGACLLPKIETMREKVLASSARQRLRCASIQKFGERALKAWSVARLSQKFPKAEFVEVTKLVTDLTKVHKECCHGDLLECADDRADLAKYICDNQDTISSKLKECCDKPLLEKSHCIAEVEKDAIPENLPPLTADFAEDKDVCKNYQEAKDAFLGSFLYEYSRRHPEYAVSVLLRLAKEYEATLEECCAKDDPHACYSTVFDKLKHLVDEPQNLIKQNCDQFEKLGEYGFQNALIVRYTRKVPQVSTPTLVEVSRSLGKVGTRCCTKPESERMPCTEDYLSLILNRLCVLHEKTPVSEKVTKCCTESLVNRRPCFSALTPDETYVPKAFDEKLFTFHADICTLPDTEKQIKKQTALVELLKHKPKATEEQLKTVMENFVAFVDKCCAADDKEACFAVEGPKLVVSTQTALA
binder,measurement,setting,value
"Zika-07 (Zika-7) aptamer, 5'-FAM (ssDNA) DNA: TGACACCGTACCTGCTCTAGTGCGCACTGAACGATCCTGCGTCAAGTTCAAGGTTGTGAAGCACGCCAAGGGACTAT",Kd,[1],107 ± 1.9 nM
"thiol-modified Zika-07 aptamer (ssDNA, 5'-SH) DNA: TGACACCGTACCTGCTCTAGTGCGCACTGAACGATCCTGCGTCAAGTTCAAGGTTGTGAAGCACGCCAAGGGACTAT",binding result,[2],no binding
same,binding result,[3],binds
"Zika-25 aptamer, 5'-FAM (ssDNA) DNA: TGACACCGTACCTGCTCTAAGCACGCCAAGGGACTATAGGTTGACACCGTACCTGCTCTAAGCACGCCAAGGGACTAT",Kd,[1],226 ± 9.6 nM
